The values that follow come from US20140234303A1.

The target in this experiment is mGCSF (R&D Systems Cat#414-CS) (mouse (printed as 'm')) (UniProt P09920). Description: cell-based or functional assay.
Chain of UniProt P09920 (P09920 31-208 limits assumed): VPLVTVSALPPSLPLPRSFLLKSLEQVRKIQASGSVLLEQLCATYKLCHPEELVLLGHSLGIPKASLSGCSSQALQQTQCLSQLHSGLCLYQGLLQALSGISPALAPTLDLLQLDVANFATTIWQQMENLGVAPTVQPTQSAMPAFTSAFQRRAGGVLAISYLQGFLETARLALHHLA

In turn, “Neutralizing anti-G-CSF (MAB414), R&D Systems (antibody)” showed an inhibition of mG-CSF proliferation of hG-CSFR BaF3 cells (MTS reduction), IC50 of 0.01 nM.
Then “soluble hG-CSFR-Fc protein (from UniProt Q99062 25-627) (Fc fusion)”, with 0.022 nM.
